Test results reported in publication PMC8003784, “Two Key Amino Acids Variant of α-L-arabinofuranosidase from Bacillus subtilis Str. 168 with Altered Activity for Selective Conversion Ginsenoside Rc to Rd” (Molecules, 2021).
Positions count from the first letter of the chain named. In names and notes the source's numbering stands.

B1: BsAbfA (Bacillus subtilis subsp. subtilis str. 168) (protein)
chain: MKKARMIVDKEYKIGEVDKRIYGSFIEHMGRAVYEGIYEPDHPEADEDGFRKDVQSLIKELQVPIIRYPGGNFLSGYNWEDGVGPVENRPRRLDLAWQTTETNEVGTNEFLSWAKKVNTEVNMAVNLGTRGIDAARNLVEYCNHPKGSYWSDLRRSHGYEQPYGIKTWCLGNEMDGPWQIGHKTADEYGRLAAETAKVMKWVDPSIELVACGSSNSGMPTFIDWEAKVLEHTYEHVDYISLHTYYGNRDNNLPNYLARSMDLDHFIKSVAATCDYVKAKTRSKKTINLSLDEWNVWYHSNEADKKVEPWITARPILEDIYNFEDALLVGSLLITMLQHADRVKIACLAQLVNVIAPIMTEKGGEAWRQPIFYPYMHASVYGRGESLKPLISSPKYDCSDFTDVPYVDAAVVYSEEEETLTIFAVNKAEDQMETEISLRGFESYQIAEHIVLEHQDIKATNQHNRKNVVPHSNGSSSVSENGLTAHFTPLSWNVIRLKKQS
notes: full ORF, codon-optimised, N-terminal His-tag (pET-28a), E. coli BL21(DE3), Ni-NTA purified, approx. 60 kDa; GH51
B2: BsAbfA (Bacillus subtilis subsp. subtilis str. 168; E173Q) (protein)
chain: B1 chain with E173Q
notes: as for B1
B3: BsAbfA (Bacillus subtilis subsp. subtilis str. 168; E292Q) (protein)
chain: B1 chain with E292Q
notes: as for B1
B4: BsAbfA (Bacillus subtilis subsp. subtilis str. 168; E173D) (protein)
chain: B1 chain with E173D
notes: as for B1
B5: BsAbfA (Bacillus subtilis subsp. subtilis str. 168; E292D) (protein)
chain: B1 chain with E292D
notes: as for B1

Substrate: O=[N+]([O-])c1ccc(O[C@@H]2O[C@@H](CO)[C@H](O)[C@H]2O)cc1
Assay: purified protein
Format: biochemical, Bacillus subtilis
Details: pH 5, 40 °C, 50 mM citric acid/sodium citrate

Protein	Km [µM]	kcat [s⁻¹]	kcat/Km [M⁻¹ s⁻¹]
B1	600 ± 80	109 ± 8.6	182000 ± 6900
B2	400 ± 70	2.5 ± 2.1	6300 ± 90
B3	700 ± 90	1.6 ± 0.04	2300 ± 50
B4	200 ± 50	0.5	2500 ± 60
B5	700 ± 60	0.9 ± 0.05	1300 ± 30
